{"source": "paper PMC2440032", "about": "“Odorranalectin Is a Small Peptide Lectin with Potential for Drug Delivery and Targeting” (PLoS ONE, 2008)", "key": {"[1]": {"assay": "SPR, odorranalectin and its mutants binding L-fucose", "conditions": "peptide immobilized, L-fucose as analyte, NA = no binding to L-fucose, read-out: binding affinity (KD)", "description": "Real time detection of odorranalectin and its mutants binding to glycoproteins and L-fucose was recorded by using a Biacore 3000 [21]–[24]. The details are provided in the supplementary materials (Materials and Methods S1).\nSPR Analysis. Real time detection of odorranalectin and its mutants binding to glycoproteins and L-fucose was recorded by using a Biacore 3000 [21-24]. Odorranalectin was immobilized covalently via their primary amines to carboxyl groups within a dextran layer on the sensor chip CM-5 according to the manufacturer’s specifications. After chip activation with 0.4 M 1-ethyl-3- (3-dimethylaminopropyl) carbodiimide hydrochloride and 10 mM N-hydroxysuccinimide, odorranalectin or its mutants (in 10 mM sodium acetate buffer, pH 4.0) at a concentration of 100 μg/ml was passed through the flow cells at a rate of 5 μl/min. After immobilization, the chip was capped by exposure to 1 M ethanolamine (pH 8.5).\nAll analyses were performed at a flow rate of 30 μl/min. Before loading of analytes, the chip was equilibrated with 10 mM HEPES-buffered saline containing 3 mM EDTA and 0.005% surfactant P-20, pH 7.4 (HBS-EP). […]\nAssociation and dissociation rate constants (ka and kd) were calculated by using BIA evaluation 4.0 software (Biacore AB, Sweden). The affinity constant (KD) was calculated from the ka and kd. […]"}, "[2]": {"assay": "Stability of 125I-odorranalectin in mice plasma in vitro", "format": "in vitro ADME", "conditions": "mice plasma 100% (v/v) and 50% in PBS pH 7.4, 5 µCi, 37 °C, sampled 0-5 h; radiochemical purity by silica gel paper chromatography and HPLC with radioactive detector", "description": "In order to evaluate the stability of ^125I- odorranalectin in vitro, a degradation experiment of ^125I-odorranalectin in mice plasma was performed. The details are provided in the supplementary materials (Materials and Methods S1).\nStability of ^125I-odorranalectin in vitro. In order to evaluate the stability of ^125I- odorranalectin in vitro, a degradation experiment of ^125I-odorranalectin in mice plasma was performed. Briefly, 5 µCi ^125I-odorranalectin (about 10 µl) was added to 790 µl plasma (100%, v/v) freshly prepared and 400 µL plasma (50%) admixed with 390 µl PBS (pH 7.4) in two 1.5-ml centrifuge tubes, respectively, which maintained at 37 °C in a rolling water-bath incubator. Then at each time point (0, 1, 2, 3, 4 and 5 h), a glass microcap was used to take samples for silica gel paper chromatography (SGPC) analysis and high-performance liquid chromatography (HPLC) for calculating the radiochemical purity of ^125I-odorranalectin. In detail, the developing agent of SGPC was methanol: water = 85:15 (v/v); After spotted and the solvent reached the frontier, the silica gel paper strip was dried and cut to ten equations (Fig. S3 and Table S7), and then set in 10 tubes, following determined radiocounting of each piece in a SN-695 Intellectual Radio-immunity γ Measurement (Shanghai Institute of Nuclear Research Ri Huan Instrument Factory, China), respectively. […]"}, "[3]": {"assay": "Tissue distribution of 125I-odorranalectin in vivo", "design": "species or system KM mice", "conditions": "400 µCi·kg^-1, mice, 5-300 min, Mean ± SD, n=3", "description": "Sixty-three female KM mice (18∼22 g) were grouped randomly into three groups receiving oral, intravenous and intranasal administration of ^125I-odorranalectin at equal radiation dose (400 µCi·kg^−1), respectively. The detail procedures are provided in the supplementary materials (Materials and Methods S1).\n(§1) Each experiment was carried out in triplicate. Values are given as means±SD. All the concentration data were plotted directly as radiocounting-time curves of the blood and tissues, and the area under the curve (AUC0→t) was calculated by the trapezoidal rule. The statistical differences between per oral or intranasal administrations and intravenous administration were assessed using student's t test and P<0.05 as statistical significance.\nTissue distribution of ^125I-odorranalectin in vivo. Sixty-three female KM mice (18~22 g) were grouped randomly to three groups receiving oral, intravenous and intranasal administration at equal radiation dose (400 µCi·kg^-1), respectively. The procedure for intranasal administration was performed gently and slowly so as to allow the mice to inhale all of the preparations (each nostril 10 µl). At different time intervals (5, 15, 30, 60, 120, 180 and 300 min) following administration, blood sample was collected via eye puncture; subsequently, the mice were humanly sacrificed, and tissues such as heart, liver, spleen, lung, stomach (content removed), kidney and brain were harvested and stuffed into a special tube after the remnant blood was blotted by tissue paper, following weighing, respectively. Finally, the radiocounting of each tissue was determined in a SN-695 Intellectual Radio-immunity γ Measurement to evaluate odorranalectin intake.\nas §1, with “Data analysis. Each” for “Each”, “means ± SD.” for “means±SD.”, “under” for “under the”, “student’s” for “student's”, “P< 0.05” for “P<0.05”"}, "human erythrocytes": {"system": "human erythrocytes", "assay": "Erythrocytes hemagglutination", "format": "cell-based", "conditions": "blood group not named"}}, "note": "Positions of bridges follow the written chain, without caps; N, C: chain ends. Residues, ends and D or L forms follow the SMILES beside them. No end group written: not given here.", "data": [{"molecule": "YASPGGFRYPNGVLACT [Odorranalectin T17/G17]", "values": [{"measurement": "Kd", "setting": "[1]", "value": 8.2, "unit": "mM"}]}, {"molecule": "^125I-odorranalectin: odorranalectin labeled by 125I with iodogen method (YASPKCFRYPNGVLACT; disulfide 6-16; ends not checked; also: 125I on a tyrosine, which one is not given here)", "values": [{"measurement": "Time of stability in mice plasma", "setting": "[2]", "value": "at least 5 hours"}, {"measurement": "AUC Blood", "setting": "[3]; in (intranasal)", "value": "6.77±3.05 *10^7 CPM·min"}, {"measurement": "AUC Brain", "setting": "[3]; in (intranasal)", "value": "0.36±0.15 *10^7 CPM·min"}, {"measurement": "AUC Heart", "setting": "[3]; in (intranasal)", "value": "2.88±1.16 *10^7 CPM·min"}, {"measurement": "AUC Kideny", "setting": "[3]; in (intranasal)", "value": "5.17±2.10 *10^7 CPM·min"}, {"measurement": "AUC Liver", "setting": "[3]; in (intranasal)", "value": "3.53±1.50 *10^7 CPM·min"}, {"measurement": "AUC Lung", "setting": "[3]; in (intranasal)", "value": "12.50±3.77 *10^7 CPM·min"}, {"measurement": "AUC Spleen", "setting": "[3]; in (intranasal)", "value": "4.48±1.86 *10^7 CPM·min"}, {"measurement": "AUC Stomach", "setting": "[3]; in (intranasal)", "value": "125.61±44.28 *10^7 CPM·min"}, {"measurement": "AUC Blood", "setting": "[3]; iv", "value": "5.41±1.11 *10^7 CPM·min"}, {"measurement": "AUC Brain", "setting": "[3]; iv", "value": "0.46±0.047 *10^7 CPM·min"}, {"measurement": "AUC Heart", "setting": "[3]; iv", "value": "3.37±0.51 *10^7 CPM·min"}, {"measurement": "AUC Kideny", "setting": "[3]; iv", "value": "8.47±1.41 *10^7 CPM·min"}, {"measurement": "AUC Liver", "setting": "[3]; iv", "value": "98.51±6.22 *10^7 CPM·min"}, {"measurement": "AUC Lung", "setting": "[3]; iv", "value": "246.41±62.56 *10^7 CPM·min"}, {"measurement": "AUC Spleen", "setting": "[3]; iv", "value": "64.82±8.61 *10^7 CPM·min"}, {"measurement": "AUC Stomach", "setting": "[3]; iv", "value": "20.90±3.09 *10^7 CPM·min"}, {"measurement": "AUC Blood", "setting": "[3]; po", "value": "4.89±0.69 *10^7 CPM·min"}, {"measurement": "AUC Brain", "setting": "[3]; po", "value": "0.25±0.024 *10^7 CPM·min"}, {"measurement": "AUC Heart", "setting": "[3]; po", "value": "1.99±0.24 *10^7 CPM·min"}, {"measurement": "AUC Kideny", "setting": "[3]; po", "value": "3.84±0.76 *10^7 CPM·min"}, {"measurement": "AUC Liver", "setting": "[3]; po", "value": "2.42±0.29 *10^7 CPM·min"}, {"measurement": "AUC Lung", "setting": "[3]; po", "value": "4.02±0.51 *10^7 CPM·min"}, {"measurement": "AUC Spleen", "setting": "[3]; po", "value": "3.60±0.35 *10^7 CPM·min"}, {"measurement": "AUC Stomach", "setting": "[3]; po", "value": "126.64±32.27 *10^7 CPM·min"}]}, {"molecule": "CC(C)C[C@@H]1NC(=O)[C@H](C(C)C)NC(=O)CNC(=O)[C@H](CC(N)=O)NC(=O)[C@@H]2CCCN2C(=O)[C@H](Cc2ccc(O)cc2)NC(=O)[C@H](CCCNC(=N)N)NC(=O)[C@H](Cc2ccccc2)NC(=O)[C@@H](NC(=O)[C@H](CCCCN)NC(=O)[C@@H]2CCCN2C(=O)[C@H](CO)NC(=O)[C@H](C)NC(=O)[C@@H](N)Cc2ccc(O)cc2)CSSC[C@@H](C(=O)N[C@H](C(=O)O)[C@@H](C)O)NC(=O)[C@H](C)NC1=O", "note": "[odorranalectin] (HELM PEPTIDE1{Y.A.S.P.K.C.F.R.Y.P.N.G.V.L.A.C.T}$PEPTIDE1,PEPTIDE1,6:R3-16:R3$$$V2.0)", "values": [{"measurement": "minimum concentration (MIC) to agglutinate intact human erythrocytes", "setting": "human erythrocytes", "value": 0.75, "unit": "µg/mL"}, {"measurement": "Time of stability in mice plasma", "setting": "[2]", "value": "more than 5 hours"}]}]}
